In PMC10897178, “FANCJ DNA helicase is recruited to the replisome by AND-1 to ensure genome stability” (EMBO Reports, 2024):
Where a chain is given by its changes, count along the chain named.

How the values were obtained:
Flag-tagged FANCJ N734H = biological target: T1, Flag-tagged FANCJ N734H (human, UniProt Q9BX63 1-1249, N734H); assay: pull-down; GST-SepB α-helix bundle (0.5 µg) on Glutathione Sepharose 4B beads, purified Flag-FANCJ (0.5 µg) added; 25 mM Tris-HCl pH 7.5, 150 mM NaCl, 0.1% Triton X-100, 4 °C; washes with 300 mM NaCl, 1% Triton X-100; Western blot; conditions: both partners purified
T1 construct: FANCJ (BRIP1), human, full-length; missense variant found in uterine endometrial carcinoma; source: HEK 293T, transiently transfected, purified (anti-Flag M2 agarose)
T1 sequence (looked up): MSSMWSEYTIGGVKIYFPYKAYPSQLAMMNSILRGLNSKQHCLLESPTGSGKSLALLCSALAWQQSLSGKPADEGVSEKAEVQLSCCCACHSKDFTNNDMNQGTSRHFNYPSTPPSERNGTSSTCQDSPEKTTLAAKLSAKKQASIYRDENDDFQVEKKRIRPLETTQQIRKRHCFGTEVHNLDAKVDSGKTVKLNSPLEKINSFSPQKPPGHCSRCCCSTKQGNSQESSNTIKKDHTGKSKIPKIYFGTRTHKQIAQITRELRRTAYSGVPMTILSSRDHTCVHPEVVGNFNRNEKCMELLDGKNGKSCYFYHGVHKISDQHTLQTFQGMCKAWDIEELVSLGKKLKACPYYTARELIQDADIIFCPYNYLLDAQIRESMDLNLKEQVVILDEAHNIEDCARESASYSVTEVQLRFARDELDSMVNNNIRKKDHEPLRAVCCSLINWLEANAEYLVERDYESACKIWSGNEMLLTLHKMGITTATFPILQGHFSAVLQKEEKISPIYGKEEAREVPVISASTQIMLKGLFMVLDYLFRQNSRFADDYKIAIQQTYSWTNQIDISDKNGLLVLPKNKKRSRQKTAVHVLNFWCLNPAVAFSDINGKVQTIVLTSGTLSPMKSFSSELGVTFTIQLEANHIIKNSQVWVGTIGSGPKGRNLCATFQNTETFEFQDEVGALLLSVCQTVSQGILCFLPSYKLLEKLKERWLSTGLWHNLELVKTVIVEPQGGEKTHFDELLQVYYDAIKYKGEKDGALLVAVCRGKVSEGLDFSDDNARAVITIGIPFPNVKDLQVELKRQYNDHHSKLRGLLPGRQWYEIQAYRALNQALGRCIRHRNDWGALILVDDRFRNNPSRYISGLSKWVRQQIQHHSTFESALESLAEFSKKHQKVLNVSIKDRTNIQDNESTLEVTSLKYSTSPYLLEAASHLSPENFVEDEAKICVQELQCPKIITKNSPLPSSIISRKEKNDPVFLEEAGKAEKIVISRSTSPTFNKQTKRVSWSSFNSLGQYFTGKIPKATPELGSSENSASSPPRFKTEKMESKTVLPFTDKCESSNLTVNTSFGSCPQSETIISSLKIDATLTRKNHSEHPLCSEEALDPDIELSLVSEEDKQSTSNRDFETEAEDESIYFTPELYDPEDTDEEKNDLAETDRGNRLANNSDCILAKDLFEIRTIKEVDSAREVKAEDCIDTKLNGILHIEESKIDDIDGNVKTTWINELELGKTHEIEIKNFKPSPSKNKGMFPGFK

Flag-tagged FANCJ D736H = biological target: T2, Flag-tagged FANCJ D736H (human, UniProt Q9BX63 1-1249, D736H); assay: as above; conditions: both partners purified
T2 construct: FANCJ (BRIP1), human, full-length; missense variant found in invasive breast carcinoma; source: HEK 293T, transiently transfected, purified (anti-Flag M2 agarose)
T2 sequence (looked up): T1 sequence (looked up) with H734N, D736H

binding result (Flag-tagged FANCJ N734H): binds | binding result (Flag-tagged FANCJ D736H): binds
B1: GST-SepB α-helix bundle WT (domain or fragment, human, UniProt O75717 718-824, looked up)
chain: IATEKGQMEEQFWRSVIFHNHLDYLAKNGYEYEESTKNQATKEQQELLMKMLALSCKLEREFRCVELADLMTQNAVNLAIKYASRSRKLILAQKLSELAVEKAAELT
notes: AND-1 (WDHD1), human, α-helix bundle of the SepB domain, amino-acid residues 718-824; Cloned into pGEX-2T; also called GST-SepB α-helix bundle chimeric protein; source: E. coli Rosetta pLysS (DE3), purified (Glutathione Sepharose 4B)
